The results in this text go back to patent US20210284747A1 (CAPELLA BIOSCIENCE, published 2021).

A word on the EC50: it is the concentration needed to bring the measured effect to its halfway point. A high value points to a need for much substance.

Residue numbers refer to the chain shown, from its start.

For assay [1], the target named is Full length LIGHT S192A on HEK293FF cells (Homo sapiens (Human), UniProt O43557 1-240). The experiment in a line: flow cytometry, HEK293FF, mAb at EC50. As for the experimental part: (§1) The day of transfection the cells were seeded in a 24-well plate at 0.6×10⁶ cells/well. Lipofectamine 2000 (ThermoFisher scientific), 3 ul, was mixed with 50 μl OptiMEM medium (GIBCO) and then added to 50 μl Opti-MEM medium containing 3 ug plasmid DNA and incubated for 20 min at RT to form DNA-Lipofectamine 2000 complexes which were then added to the HEK293FF cells and incubated at 37° C., 5% CO₂ for 24 hours. For each construct, in duplicate, 0.60×10⁶ cells/well were used in a 96 well round bottom plate. Cells were centrifuged for 3 minutes at 300×g at 4° C., the supernatant discarded and the cells washed with 150 μl FACS buffer (0.5% FBS in phosphate buffered saline). This process was repeated 3 times. […] The wells were washed 3 times as above and 50 μl/well of goat anti-human IgG FITC (1:1500 dilution in FACS buffer, SIGMA F9512-2ML) or goat anti-mouse APC (1/500 dilution in FACS buffer, BDBioscience 550826), as appropriate, was added to the wells and incubated for 30 min at 4° C. protected from the light, with shaking. The cells were then washed as above, resuspended in 100 μl of FACS buffer and binding of the antibodies to the constructs was measured using flow cytometry and a total of 10,000 cells were acquired for each sample. Controls of buffer and secondary antibody only as well as HEK293FF non transfected cells were also used.
Chain of Full length LIGHT S192A on HEK293FF cells (O43557 whole entry S192A): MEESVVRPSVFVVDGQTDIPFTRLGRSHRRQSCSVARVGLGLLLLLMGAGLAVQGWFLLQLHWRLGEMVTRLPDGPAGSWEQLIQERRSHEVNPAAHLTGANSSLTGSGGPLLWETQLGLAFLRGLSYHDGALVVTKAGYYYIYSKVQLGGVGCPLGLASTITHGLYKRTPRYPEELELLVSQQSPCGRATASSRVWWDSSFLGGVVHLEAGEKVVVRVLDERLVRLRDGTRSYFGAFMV

The target in assay [2] is Full length LIGHT S193A on HEK293FF cells (Homo sapiens (Human), UniProt O43557 1-240). Description: flow cytometry, HEK293FF, mAb at EC50. As for the experimental part:
as §1

Assay [3] concerns the target Full length LIGHT T191A on HEK293FF cells (Homo sapiens (Human), UniProt O43557 1-240). Description: flow cytometry, HEK293FF, mAb at EC50. On the procedure: as §1
Assay [4] deals with Full length LIGHT S194A on HEK293FF cells (Homo sapiens (Human), UniProt O43557 1-240). Description: flow cytometry, HEK293FF, mAb at EC50. On the procedure:
as §1
A general note: A flow cytometer gives signals particle by particle.

Assay [5] concerns the target Full length LIGHT R189A on HEK293FF cells (Homo sapiens (Human), UniProt O43557 1-240). Description: flow cytometry, HEK293FF, mAb at EC50. As for the experimental part:
as §1

In assay [6] the target is Full length LIGHT W198A on HEK293FF cells (Homo sapiens (Human), UniProt O43557 1-240). Description: flow cytometry, HEK293FF, mAb at EC50. As for the experimental part:
as §1

In assay [7] the target is Full length LIGHT V196A on HEK293FF cells (Homo sapiens (Human), UniProt O43557 1-240). Description: flow cytometry, HEK293FF, mAb at EC50. On the procedure:
as §1

Assay [8] concerns the target Full length LIGHT A190S on HEK293FF cells (Homo sapiens (Human), UniProt O43557 1-240). Description: flow cytometry, HEK293FF, mAb at EC50. As for the experimental part:
as §1

The target of assay [9] is Full length LIGHT W197A on HEK293FF cells (Homo sapiens (Human), UniProt O43557 1-240). Description: flow cytometry, HEK293FF, mAb at EC50. As for the experimental part:
as §1

In assay [10] the target is Full length LIGHT G188A on HEK293FF cells (Homo sapiens (Human), UniProt O43557 1-240). Description: flow cytometry, HEK293FF, mAb at EC50. As for the experimental part:
as §1

For assay [11], the target named is Full length LIGHT R195A on HEK293FF cells (Homo sapiens (Human), UniProt O43557 1-240). The experiment in a line: flow cytometry, HEK293FF, mAb at EC50. On the procedure:
as §1

Assay [12] deals with T1, Human LIGHT stably expressed on EL4 cells (EL4-LIGHT) (human, UniProt O43557 1-240).
T1 construct: whole, on cells; also called membrane LIGHT
T1 sequence (O43557 whole entry): as the sequence (O43557 whole entry S192A) above, with A192S counted along it
Description: flow cytometry, against F19 and F23.

Assay [13] addresses T1, Human LIGHT stably expressed on EL4 …. The experiment in a line: flow cytometry, EL4-LIGHT cells. As for the experimental part:
The EC50 of the 7 mAbs were calculated from binding to EL4-LIGHT cells (FIG. 1). […] Non-linear regression analysis was performed to determine the functional binding affinity measurement or EC50 for each mAb. A range of functional affinities was observed.

Assay [14] concerns the target T2, Human LIGHT-32L, on II23 cells (human, UniProt O43557 1-240).
T2 construct: also called II23-LIGHT 32L
T2 chain: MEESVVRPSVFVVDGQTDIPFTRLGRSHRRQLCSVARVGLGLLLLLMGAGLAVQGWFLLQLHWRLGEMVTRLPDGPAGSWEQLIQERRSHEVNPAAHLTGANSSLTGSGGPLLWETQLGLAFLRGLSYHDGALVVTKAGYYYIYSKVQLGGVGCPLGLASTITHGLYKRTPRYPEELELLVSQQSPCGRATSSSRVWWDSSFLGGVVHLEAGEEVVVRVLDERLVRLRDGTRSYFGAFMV
Description: flow cytometry on II23-LIGHT 32L cells, 4 ug mAb in 100 uL, goat anti-human Fc gamma-PE; signal as % of the commercial anti-LIGHT-PE. As for the experimental part: The cells were suspended at 1×10⁷ cells/ml and 100 uL aliquots were placed into wells of a 96-well plate, the cells spun down and washed in FACS buffer at 1800 rpm for 2 min. The cells were blocked with 1:100 dilution of anti-CD16/CD32 (eBioscience, San Diego, USA) in FACS buffer for 20 min at room temperature and then washed 1× in FACS buffer at 1800 rpm for 2 min. The cells were then resuspended in 100 uL FACS buffer+4 ug anti-membrane LIGHT mAbs or anti-LIGHT-PE (eBioscience, lot: E01621-1632) for 30 min in the dark at room temperature, followed by washing 1× in FACS buffer at 1800 rpm for 2 min and then resuspended in 100 uL FACS buffer plus 1:100 goat anti-human Fcγ-PE secondary antibody or no secondary antibody at 4° C. in the dark for 30 min. The cells were again washed 1× in FACS buffer at 1800 rpm for 2 min and fixed in 200 uL 2% paraformaldehyde overnight at 4° C. and read on a flow cytometer.

In assay [15] the target is LIGHT without residues 81-84, stably expressed on EL4 cells (EL4-NC-LIGHT). The experiment in a line: cell-based or functional assay.

Chain of Full length LIGHT R189A on HEK293FF cells (O43557 whole entry R189A): as the sequence (O43557 whole entry S192A) above, with R189A, A192S counted along it
Chain of Full length LIGHT R195A on HEK293FF cells (O43557 whole entry R195A): as the sequence (O43557 whole entry S192A) above, with A192S, R195A counted along it
Chain of Full length LIGHT S194A on HEK293FF cells (O43557 whole entry S194A): as the sequence (O43557 whole entry S192A) above, with A192S, S194A counted along it
Chain of Full length LIGHT V196A on HEK293FF cells (O43557 whole entry V196A): as the sequence (O43557 whole entry S192A) above, with A192S, V196A counted along it
Chain of Full length LIGHT W198A on HEK293FF cells (O43557 whole entry W198A): as the sequence (O43557 whole entry S192A) above, with A192S, W198A counted along it
Chain of Full length LIGHT G188A on HEK293FF cells (O43557 whole entry G188A): as the sequence (O43557 whole entry S192A) above, with G188A, A192S counted along it
Chain of Full length LIGHT W197A on HEK293FF cells (O43557 whole entry W197A): as the sequence (O43557 whole entry S192A) above, with A192S, W197A counted along it
Chain of Full length LIGHT T191A on HEK293FF cells (O43557 whole entry T191A): as the sequence (O43557 whole entry S192A) above, with T191A, A192S counted along it
Chain of Full length LIGHT A190S on HEK293FF cells (O43557 whole entry A190S): as the sequence (O43557 whole entry S192A) above, with A190S, A192S counted along it

B1: 3E09 chimeric IgG4 mAb (antibody, V domains shown)
VH: EVQLVESGGGLVKPGGSLKLSCEASGFTFSDYYMYWVRQTPEKRLEWVAAIGDGGIYTYYADTVKGRFTISRDNAKNILYLQMSSLKSNDTAMYYCARGTGDGFAYWGQGTLVTVS
VL: DIVLTQSPASLAVSLGQRATISCRASESVDSYGNSFMHWYQQKPGQPPKLLIYLASNLESGVPARFSGSGSRTDFTLTIDPVEADDAATYYCQQNNEDPYTFGGGTKLEIK
notes: Chimeric human IgG4 (S-to-P, L-to-E) with human CL, as m1; also called Parental 3E09
B1: the “% of WT binding” value in [1] is 50%; in assay [2], 0%; in [3], 88%; in assay [4], 1%; in assay [5] it was 1%; in [6], 48%. Moreover, the “% of WT binding” value in [7] is 34%; in [8] it was 97%; in [9] it was 1%; in assay [10] it was 35%; in assay [11], 1%. Also, the “binding ratio, mAb to LIGHT trimer” value in assay [12] is 1 mAb per LIGHT trimer. The EC50 in assay [13] was found to be 10400 pM. In addition, the binding result in assay [14] is listed as “binds”.

B2: 3B04_var8 (antibody, V domains shown)
VH: QVQLVQSGAEVKKPGASVKVSCKASGYTFTDYEMHWVRQAPGQGLEWMGEIDPETGDTAYAQKFQGRVTLTADKSTSTAYMELSSLRSEDTAVYYCSRETDYFFDYWGQGTLVTVSS
VL: DIQMTQSPSSLSASVGDRVTITCGASENIYGALNWYQRKQGKAPKLLIYGATNLADGVPSRFSGSGSGRDYTLTISSLQPEDFATYYCQNVLTTPWTFGQGTKLEIKR
B2: in [15], the “IC50, inhibition of IL-8 secretion, HT-29 + EL4-NC-LIGHT cells” value (“IC50, inhibition of IL-8 secretion” below) came to 50 pM.

B3: 3D12_var7 (antibody, V domains shown)
VH: B2 VH with G26D, Y32S, M34I, D57G
VL: B2 VL with F83V, T93S
Regarding B3, the “IC50, inhibition of IL-8 secretion” value in assay [15] was determined as 540 pM.

B4: 3B04_var1 (antibody, V domains shown)
VH: B2 VH with M48I, A61S, Q65K, V68A, L83F
VL: B2 VL with K45Q, P59S
Regarding B4, the “IC50, inhibition of IL-8 secretion” value in [15] is 50 pM.

B5: 3D12_var6 (antibody, V domains shown)
VH: B2 VH with G26D, Y32S, M34I, M48I, D57G, A61N
VL: B2 VL with F83V, T93S
Consider B5, for which, in assay [15], the “IC50, inhibition of IL-8 secretion” value was found to be 470 pM.

B6: 3B04_var10 (antibody, V domains shown)
VH: B2 VH with M48I, A61S, L83F
VL: B2 VL with R38Q, Q40P
For the molecule B6, the “IC50, inhibition of IL-8 secretion” value in [15] came to 40 pM.

B7: 3D12_var11 (antibody, V domains shown)
VH: B2 VH with G26D, Y32S, M34I, D57G
VL: B2 VL with R38Q, Q40P, F83V, T93S
Turning to B7, the “IC50, inhibition of IL-8 secretion” value in [15] was determined as 550 pM.

B8: 3D12_var3 (antibody, V domains shown)
VH: B2 VH with G26D, Y32S, M34I, D57G
VL: B2 VL with K45Q, P59S, F83V, T93S
On to B8, for which the “IC50, inhibition of IL-8 secretion” value in [15] was 530 pM.

B9: 3B04_var5 (antibody, V domains shown)
VH: B2 VH with M48I, A61S, Q65K, V68A, L83F
VL: B2 VL
Take B9: in [15], the “IC50, inhibition of IL-8 secretion” value was 40 pM.

B10: 3D12_var10 (antibody, V domains shown)
VH: B2 VH with G26D, Y32S, M34I, M48I, D57G, A61N
VL: B2 VL with R38Q, Q40P, F83V, T93S
Consider B10, for which the “IC50, inhibition of IL-8 secretion” value in assay [15] amounted to 440 pM.

B11: 3B04_var9 (antibody, V domains shown)
VH: B2 VH with M48I, A61S, Q65K, V68A, L83F
VL: B2 VL with R38Q, Q40P
Turning to B11, the “IC50, inhibition of IL-8 secretion” value in assay [15] worked out at 90 pM.

B12: 3D12_var2 (antibody, V domains shown)
VH: B2 VH with G26D, Y32S, M34I, M48I, D57G, A61N
VL: B2 VL with K45Q, P59S, F83V, T93S
For B12, the “IC50, inhibition of IL-8 secretion” value in assay [15] is 740 pM.

B13: 3B04_var2 (antibody, V domains shown)
VH: B2 VH with M48I, A61S, L83F
VL: B2 VL with K45Q, P59S
As to B13, the “IC50, inhibition of IL-8 secretion” value in [15] came out at 60 pM.

B14: 3B04_var4 (antibody, V domains shown)
VH: B2 VH
VL: B2 VL with K45Q, P59S
As for B14, in assay [15], the “IC50, inhibition of IL-8 secretion” value was 40 pM.

B15: 3D12_var9 (antibody, V domains shown)
VH: B2 VH with G26D, Y32S, M34I, M48I, D57G, A61N, Q65K, V68A
VL: B2 VL with R38Q, Q40P, F83V, T93S
Take B15: the “IC50, inhibition of IL-8 secretion” value in assay [15] was 710 pM.

B16: 3D12_var5 (antibody, V domains shown)
VH: B2 VH with G26D, Y32S, M34I, M48I, D57G, A61N, Q65K, V68A
VL: B2 VL with F83V, T93S
With B16, in [15], the “IC50, inhibition of IL-8 secretion” value stood at 590 pM.

B17: 3D12_var1 (antibody, V domains shown)
VH: B2 VH with G26D, Y32S, M34I, M48I, D57G, A61N, Q65K, V68A
VL: B2 VL with K45Q, P59S, F83V, T93S
As to B17, the “IC50, inhibition of IL-8 secretion” value in assay [15] was 330 pM.

B18: 3B04_var12 (antibody, V domains shown)
VH: B2 VH
VL: B2 VL with R38Q, Q40P
Take B18: the “IC50, inhibition of IL-8 secretion” value in [15] was found to be 70 pM.

B19: 3B04_var6 (antibody, V domains shown)
VH: B2 VH with M48I, A61S, L83F
VL: B2 VL
For B19, in assay [15], the “IC50, inhibition of IL-8 secretion” value came to 80 pM.
